Legend:
[1] = target: Serum samples collected at week 16 from patients immunized with UBI AD vaccine (UB-311); test: comp. ELISA, serum P101
[2] = target: Serum samples collected at week 16 from patients immunized with UBI AD vaccine (UB-311); test: comp. ELISA, serum P102
[3] = target: Serum samples collected at week 16 from patients immunized with UBI AD vaccine (UB-311); test: comp. ELISA, serum P103
[4] = target: Serum samples collected at week 16 from patients immunized with UBI AD vaccine (UB-311); test: comp. ELISA, serum P104
[5] = target: Serum samples collected at week 16 from patients immunized with UBI AD vaccine (UB-311); test: comp. ELISA, serum P105
[6] = target: Serum samples collected at week 16 from patients immunized with UBI AD vaccine (UB-311); test: comp. ELISA, serum P106
[7] = target: Serum samples collected at week 16 from patients immunized with UBI AD vaccine (UB-311); test: comp. ELISA, serum P107
[8] = target: Serum samples collected at week 16 from patients immunized with UBI AD vaccine (UB-311); test: comp. ELISA, serum P108
[9] = target: Serum samples collected at week 16 from patients immunized with UBI AD vaccine (UB-311); test: comp. ELISA, serum P109
[10] = target: Serum samples collected at week 16 from patients immunized with UBI AD vaccine (UB-311); test: comp. ELISA, serum P201
[11] = target: Serum samples collected at week 16 from patients immunized with UBI AD vaccine (UB-311); test: comp. ELISA, serum P202
[12] = target: Serum samples collected at week 16 from patients immunized with UBI AD vaccine (UB-311); test: comp. ELISA, serum P203
[13] = target: Serum samples collected at week 16 from patients immunized with UBI AD vaccine (UB-311); test: comp. ELISA, serum P204
[14] = target: Serum samples collected at week 16 from patients immunized with UBI AD vaccine (UB-311); test: comp. ELISA, serum P205
[15] = target: Serum samples collected at week 16 from patients immunized with UBI AD vaccine (UB-311); test: comp. ELISA, serum P206
[16] = target: Serum samples collected at week 16 from patients immunized with UBI AD vaccine (UB-311); test: comp. ELISA, serum P207
[17] = target: Serum samples collected at week 16 from patients immunized with UBI AD vaccine (UB-311); test: comp. ELISA, serum P208
[18] = target: Serum samples collected at week 16 from patients immunized with UBI AD vaccine (UB-311); test: comp. ELISA, serum P209
[19] = target: Serum samples collected at week 16 from patients immunized with UBI AD vaccine (UB-311); test: comp. ELISA, serum P210
[20] = target: Immune sera of baboons immunized with UBI AD vaccine; test: competitive inhibition ELISA

Row | Binder | IC50-based peak height [1] | IC50-based peak height [2] | IC50-based peak height [3] | IC50-based peak height [4] | IC50-based peak height [5] | IC50-based peak height [6] | IC50-based peak height [7] | IC50-based peak height [8] | IC50-based peak height [9] | IC50-based peak height [10] | IC50-based peak height [11] | IC50-based peak height [12] | IC50-based peak height [13] | IC50-based peak height [14] | IC50-based peak height [15] | IC50-based peak height [16] | IC50-based peak height [17] | IC50-based peak height [18] | IC50-based peak height [19] | also measured
1 | EVHHQKLVFF [Aβ11-20 or APP 770 (E682-F691)] | 0 | 0 | 0 | 0 | 0 | 0 | 0 | 0 | 0 | 0 | 0 | 0 | 0 | 0 | 0 | 0 | 0 | 0 | 0 | –
2 | YEVHHQKLVF [Aβ10-19 or APP 770 (Y681-F690)] | 0 | 0 | 0 | 0 | 0 | 0 | 0 | 0 | 0 | 0 | 0 | 0 | 0 | 0 | 0 | 10 | 0 | 0 | 0 | –
3 | GYEVHHQKLV [Aβ9-18 or APP 770 (G680-V689)] | 0 | 0 | 0 | 0 | 0 | 0 | 0 | 0 | 0 | 0 | 0 | 0 | 0 | 0 | 0 | 16 | 0 | 0 | 0 | –
4 | EFRHDSGYEV [Aβ3-12 or APP 770 (E674-V683)] | 0 | 0 | 0 | 0 | 0 | 0 | 0 | 0 | 0 | 0 | 0 | 0 | 0 | 0 | 0 | 0 | 0 | 0 | 0 | % inhibition at 0 µg/mL [20]: 0%; % inhibition at 0.25 µg/mL [20]: 1%; % inhibition at 0.5 µg/mL [20]: 1%; % inhibition at 1 µg/mL [20]: 0%; % inhibition at 2 µg/mL [20]: 0%; % inhibition at 8 µg/mL [20]: 0%; % inhibition at 32 µg/mL [20]: 3%
5 | VHHQKLVFFA [Aβ12-21 or APP 770 (V683-A692)] | 0 | 0 | 0 | 0 | 0 | 0 | 0 | 0 | 0 | 0 | 0 | 0 | 0 | 0 | 0 | 27 | 0 | 0 | 0 | –
6 | QKLVFFAEDV [Aβ15-24 or APP 770 (Q686-V695)] | 0 | 0 | 0 | 0 | 0 | 0 | 0 | 0 | 0 | 0 | 0 | 0 | 0 | 0 | 0 | 0 | 0 | 0 | 0 | –
7 | AEFRHDSGYE [Aβ2-11 or APP 770 (A673-E682)] | 2 | 0 | 0 | 0 | 0 | 0 | 0 | 0 | 0 | 3 | 0 | 0 | 0 | 0 | 0 | 0 | 0 | 0 | 0 | % inhibition at 0 µg/mL [20]: 0%; % inhibition at 0.25 µg/mL [20]: 3%; % inhibition at 0.5 µg/mL [20]: 0%; % inhibition at 1 µg/mL [20]: 0%; % inhibition at 2 µg/mL [20]: 0%; % inhibition at 8 µg/mL [20]: 6%; % inhibition at 32 µg/mL [20]: 19%
8 | HQKLVFFAED [Aβ14-23 or APP 770 (H685-D694)] | 0 | 0 | 0 | 0 | 0 | 0 | 0 | 0 | 0 | 0 | 0 | 0 | 0 | 0 | 0 | 0 | 0 | 0 | 0 | –
9 | HHQKLVFFAE [Aβ13-22 or APP 770 (H684-E693)] | 0 | 0 | 0 | 0 | 0 | 0 | 0 | 0 | 0 | 0 | 0 | 0 | 0 | 0 | 0 | 0 | 0 | 0 | 0 | –

— patent US20190194280A1
